# Assay results taken from the RNAGym collection of RNA variant scans (doi:10.1093/molbev/msab373).
# B1: Azoarcus group I ribozyme (parent)
# chain: GUGCCUUGCGCCGGGAAACCACGCAAGGGAUGGUGUCAAAUUCGGCGAAACCUAAGCGCCCGCCCGGGCGUAUGGCAACGCCGAGCCAAGCUUCGGCGCCUGCGCCGAUGAAGGUGUAGAGACUAGACGGCACCCACCUAAGGCAAACGCUAUGGUGAAGGCAUAGUCCAGGGAGUGGCGAAAGUCACACAAACCGG
# Variants of: B1
# Experiment: reverse-splicing fitness (ratio to wild type); higher = more active; in vitro selection; Mg2+ level not given
# In short: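 An in vitro group I ribozyme library with randomized positions was T7-transcribed and gel-purified. In triplicate, 10 pmol RNA in EPPS pH 7.5 was reacted with 50 pmoles of a 30-nt RNA substrate for 1 h at 37 °C across several added MgCl2 levels (1–48 mM), then stopped with EDTA. Products were reverse transcribed from a substrate-complementary primer, PCR-amplified and sequenced (HiSeq 4000). Fitness is a variant's read proportion after selection over that before, normalised to wild type.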
row,Variant,reverse-splicing fitness
1,A111U C169U U176A,0.0279
2,A111U C169U U176C,0.0365
3,A111U C169U U176G,0.00752
4,A111U C150G C169G U176A,0.00681
5,A111U C150G C169G U176C,0.00465
6,A111U C150G C169G U176G,0.00515
7,A111U A145U,0.924
8,A111U C150U C169U U176C,0.0237
9,A111U C150U C169U U176G,0.00705
10,A111U C150U C169U U176A,0.0262
11,A120C A145G C150G C169A,0.0119
12,A120C A145G C150G C169U,0.108
13,A120C A145G C150G C169G,0.00987
14,A111U C169A,0.0292
15,A111U C169G,0.0649
16,A111U C169U,0.103
17,A111U C150G C169U U176G,0.00634
18,A111U C150G C169U U176C,0.0145
19,A111U C150G C169U U176A,0.00776
20,A111U C150G C169A U176G,0.00689
21,A111U C150G C169A U176A,0.0102
22,A111U C150G C169A U176C,0.0111
23,A120C A145C C169A U176A,0.00918
24,A120C A145C C169A U176G,0.00331

row,Variant,reverse-splicing fitness
1,A120C A145C C169A U176C,0.00838
2,A120C A145C C150A,0.128
3,A120C A145C C150U,0.46
4,A120C A145C C150G,0.279
5,A120C A145U C150A C169U U176A,0.0459
6,A120C A145U C150A C169U U176C,0.0562
7,A120C A145U C150A C169U U176G,0.0079
8,A111U A145U C169A U176C,0.0115
9,A111U A145U C169A U176G,0.00631
10,A111U A145U C169A U176A,0.0113
11,A111U A145U C150U C169A,0.0209
12,A111U A145U C150U C169G,0.0415
13,A111U A145U C150U C169U,0.0705
14,A120C A145U C150G C169U,0.107
15,A120C A145U C150G C169A,0.00905
16,A120C A145U C150G C169G,0.00781
17,A120C A145C C150G U176A,0.155
18,A120C A145C C150G U176G,0.0256
19,A120C A145C C150G U176C,0.174
20,A120C A145U U176A,0.726
21,A120C A145U U176G,0.318
22,A120C A145U U176C,0.7
23,A120C C150A C169U U176A,0.0533
24,A120C A145G C150U C169G U176C,0.0182

row,Variant,reverse-splicing fitness
1,A120C A145G C150U C169G U176G,0.004
2,A120C A145G C150U C169G U176A,0.014
3,A111U A145U C169G,0.0652
4,A111U A145U C169A,0.0323
5,A111U A145U C169U,0.109
6,A120C A145C C169G U176G,0.00338
7,A120C A145C C169G U176C,0.0103
8,A120C A145C C169G U176A,0.0163
9,A120C A145U C150U C169A U176C,0.0111
10,A120C A145U C150U C169A U176G,0.00474
11,A120C A145U C150U C169A U176A,0.0137
12,A120C A145U C150A C169A U176A,0.0124
13,A120C A145U C150A C169A U176C,0.00632
14,A120C A145U C150A C169A U176G,0.00377
15,A120C A145C C150A C169G U176C,0.00769
16,A120C A145C C150A C169G U176A,0.0166
17,A120C A145C C150A C169G U176G,0.00492
18,A120C A145U C150U C169G,0.0196
19,A120C A145U C150U C169A,0.0252
20,A120C A145U C150U C169U,0.329
21,A111U A145U C150U U176G,0.266
22,A111U A145U C150U U176A,0.632
23,A111U A145U C150U U176C,0.641
24,A120C A145U C150A U176G,0.0668

row,Variant,reverse-splicing fitness
1,A120C A145U C150A U176A,0.191
2,A120C A145U C150A U176C,0.179
3,A120C,0.9
4,A111U C150A C169A U176A,0.0182
5,A111U C150A C169A U176G,0.00646
6,A111U C150A C169A U176C,0.0168
7,A120C A145U C150G C169G U176A,0.00633
8,A120C A145U C150G C169G U176C,0.00537
9,A120C A145U C150G C169G U176G,0.00367
10,A120C A145G C150U C169A U176C,0.0196
11,A120C A145G C150U C169A U176G,0.00444
12,A120C A145G C150U C169A U176A,0.0167
13,A120C A145C C150G C169U U176C,0.0503
14,A120C A145C C150G C169U U176G,0.0043
15,A120C A145C C150G C169U U176A,0.0183
16,A111U A145U C150A C169A U176C,0.00995
17,A111U A145U C150A C169A U176A,0.0131
18,A111U A145U C150A C169A U176G,0.00582
19,A120C A145U C169G,0.0257
20,A120C A145U C169A,0.032
21,A120C A145U C169U,0.441
22,A120C A145U C169A U176G,0.00466
23,A120C A145U C169A U176A,0.01
24,A120C A145U C169A U176C,0.0127

row,Variant,reverse-splicing fitness
1,A111U A145G U176A,0.701
2,A111U A145G U176C,0.721
3,A111U A145G U176G,0.267
4,A120C A145G C150A U176C,0.271
5,A120C A145G C150A U176A,0.263
6,A120C A145G C150A U176G,0.0729
7,A120C A145C C150A C169U U176G,0.00561
8,A120C A145C C150A C169U U176C,0.032
9,A120C A145C C150A C169U U176A,0.0342
10,A120C C150A C169A U176A,0.0193
11,A120C C150A C169A U176C,0.011
12,A120C C150A C169A U176G,0.00451
13,A120C A145C C150A C169A,0.00701
14,A120C A145C C150A C169G,0.00626
15,A120C A145C C150A C169U,0.0518
16,A111U A145U C150G,0.41
17,A111U A145U C150U,0.88
18,A111U A145U C150A,0.379
19,A111U A145U C150G C169U,0.0168
20,A111U A145U C150G C169A,0.0102
21,A111U A145U C150G C169G,0.011
22,A120C A145C C150G C169A,0.0111
23,A120C A145C C150G C169U,0.117
24,A120C A145C C150G C169G,0.00786

row,Variant,reverse-splicing fitness
1,A120C A145G C150G C169U U176A,0.0149
2,A120C A145G C150G C169U U176C,0.0406
3,A120C A145G C150G C169U U176G,0.00611
4,A111U C150G C169U,0.0141
5,A111U C150G C169A,0.00956
6,A111U C150G C169G,0.00998
7,A111U U176A,0.823
8,A111U U176C,0.793
9,A111U U176G,0.288
10,A120C A145G,0.772
11,A120C A145U,0.886
12,A120C A145C,0.783
13,A120C A145G C150G C169A U176G,0.00789
14,A120C A145G C150G C169A U176A,0.0131
15,A120C A145G C150G C169A U176C,0.0132
16,A111U A145U C150G C169U U176G,0.00601
17,A111U A145U C150G C169U U176A,0.00897
18,A111U A145U C150G C169U U176C,0.0129
19,A111U C150U U176C,0.638
20,A111U C150U U176A,0.6
21,A111U C150U U176G,0.251
22,A111U A145U C150A C169A,0.01
23,A111U A145U C150A C169G,0.0109
24,A111U A145U C150A C169U,0.018

row,Variant,reverse-splicing fitness
1,A120C A145G C150U C169U U176C,0.186
2,A120C A145G C150U C169U U176G,0.0092
3,A120C A145G C150U C169U U176A,0.125
4,A111U C150G U176G,0.0165
5,A111U C150G U176A,0.0805
6,A111U C150G U176C,0.124
7,A120C A145C C150U C169A U176C,0.008
8,A120C A145C C150U C169A U176G,0.00465
9,A120C A145C C150U C169A U176A,0.0105
10,A120C A145G U176C,0.652
11,A120C A145G U176G,0.212
12,A120C A145G U176A,0.707
13,A111U A145U C150A C169G U176A,0.0129
14,A111U A145U C150A C169G U176G,0.0065
15,A111U A145U C150A C169G U176C,0.0169
16,A120C A145U C150G C169U U176C,0.0535
17,A120C A145U C150G C169U U176G,0.00515
18,A120C A145U C150G C169U U176A,0.0184
19,A120C A145G C150A C169U U176G,0.00697
20,A120C A145G C150A C169U U176A,0.0678
21,A120C A145G C150A C169U U176C,0.0824
22,A111U A145U C169U U176A,0.0258
23,A111U A145U C169U U176G,0.00639
